The target of this assay is T1, flag-tagged soluble TL3 (amino acids 105-251 of SEQ ID NO:234) (Homo sapiens (Human), UniProt O75888 105-250).
T1 construct: Heterologous flag-tagged control protein, immobilized in the ELISA; also called flagged tagged TL-3; not shown: Flag tag
T1 sequence: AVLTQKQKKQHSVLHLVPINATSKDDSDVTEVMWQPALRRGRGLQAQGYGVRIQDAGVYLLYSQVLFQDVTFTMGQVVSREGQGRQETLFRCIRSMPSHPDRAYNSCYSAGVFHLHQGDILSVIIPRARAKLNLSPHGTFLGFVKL
Briefly: phage ELISA on immobilized flag-tagged soluble TL3. As to the method: The individual phage isolates in the panel of phage, each phage expressing a unique scFv that bound to flag-tagged GMAD, were tested to ensure specificity for GMAD using an ELISA assay. The scFvs were tested in an ELISA for their ability to bind a heterologous flag-tagged protein, in this case—immobilized soluble TL3 (amino acids 105-251 of SEQ ID NO:234, GenBank Accesion Number NP_{—}003799, also described in International Patent Application Publication Number WO97/33902 and WO2001/96528 which are herein incorporated by reference in their entireties).
(In general: An ELISA detects its analyte on a solid surface through an enzyme-linked reagent.)

This note sets out measurements from patent publication US20050069542A1 (Human Genome Sciences, published 2005).

Substitutions are numbered along the chain they refer to.

B1: GMBC692 (scFv)
scFv: EVQLVQSGGGLVKPGGSLRLSCAASGFTFSDAWMNWVRQAPGKGLEWVGRIKSKGSGGTIDYAAPVKDRFTISRDDSKNTLYLQMNSLKTEDTALYYCTWDWDFYYGMNVWGRGTLVTVSSGGGGSGGGGSGGGGSQSVLTQPASVSGSPGQSITISCTGTSSDVGGYNYVSWYQQHPGKAPKLMIYEGSKRPSGVSNRFSGSKSGNTASLTISGLQAEDEADYYCSSYTTRSTRVFGGGTKLTVLG
Regarding B1, the binding result is recorded as “no binding”.

B2: GMBC647 (scFv)
scFv: B1 scFv with Q6E, R113Q, L116T
Consider B2, for which the binding result is listed as “no binding”.

B3: GMBC727 (scFv)
scFv: EVQLVESGGDTVKPGGSLRLSCAGSGFTFSDAWMNWVRQAPGKGLEWVGRMKSKGSGGTRDYAAPVNGRFTISRDDSKNTLYLQMNSLNTEDTGVYYCTWDWDFYYGMNVWGRGTLVTVSSGGGGSGGGGSGGGGSQSVLTQPASVSGSPGQSITISCTGTSSDVGGYNYVSWYQQHPGKAPKLMIYEGSKRPSGVSNRFSGSKSGNTASLTISGLQAEDEADYYCSSYTTRSTRVFGGGTKLTVLG
As to B3, the binding result is reported as “no binding”.

B4: GMBC658 (scFv)
scFv: B1 scFv with L116T
As for B4, the binding result is “no binding”.

B5: GMBC664 (scFv)
scFv: B1 scFv with Q6E, S7T, G10A, G112S, L116M
For B5, the binding result is on record as “no binding”.

B6: GMBC634 (scFv)
scFv: B1 scFv with E1Q, R113Q
For the molecule B6, the binding result was “no binding”.

B7: GMBC645 (scFv)
scFv: B1 scFv with Q6E, A24G, T28K, D61E, T71I, N79D, K242E
Take B7: the binding result was “no binding”.

B8: GMBC605 (scFv)
scFv: B1 scFv with E1Q, A23E, A24T, T28K
With B8, the binding result is “no binding”.

B9: GMBC667 (scFv)
scFv: B1 scFv with E1Q, V5Q, Q6E, A24G, T28P, T71R, K89N, T90I, R113Q, L116T
On to B9, for which the binding result is “no binding”.

B10: GMBC615 (scFv)
scFv: B1 scFv with Q6E, T28K, R113K, T118A
Consider B10, for which the binding result is on record as “no binding”.

B11: GMBC616 (scFv)
scFv: EVQLVESGGGLVKPGGSLRLSCAASGFTFSDAWMNWVRQAPGKGLEWVGRIKSKGSGGTTDYAAPVKDRFTISRDDSENTLYLQMNSLKTEDTAVYYCTWDHSYYYDMAVWGRGTLVTVSSGGGGSGGGGSGGGGSQSVLTQPPFVSGSPGQSITISCTGTSSDVGGYNYVSWYQQHPGKAPKLMIYEGSKRPSGVSNRFSGSKSGNTASLTISGLQAEDEADYYCSSYTTRSTRVFGGGTKLTVLG
For the molecule B11, the binding result is reported as “no binding”.

B12: GMBC625 (scFv)
scFv: B1 scFv with G55R, N79D, L81M, R113Q, L116M, S201F
In the case of B12, the binding result is given as “no binding”.

B13: GMBC679 (scFv)
scFv: B11 scFv with E1Q, P144A, F145S, M185V
Turning to B13, the binding result is reported as “no binding”.

B14: GMBC614 (scFv)
scFv: B1 scFv with L116M
As for B14, the binding result is “no binding”.

B15: GMBC684 (scFv)
scFv: B1 scFv with E1Q, T28K, R113Q, L116P, V139A
In the case of B15, the binding result is given as “no binding”.

B16: GMBC670 (scFv)
scFv: B1 scFv with Q6E, S7T, A23V, T71I, M85V, R113Q
B16: the binding result was “no binding”.

B17: GMBC649 (scFv)
scFv: B1 scFv with E1Q
For B17, the binding result is listed as “no binding”.

B18: GMBC651 (scFv)
scFv: B1 scFv with Q6E, K13Q, L116M
As for B18, the binding result is “no binding”.

B19: GMBC690 (scFv)
scFv: B1 scFv with L11V, K13Q, G16R, N169I, K180R
Turning to B19, the binding result is reported as “no binding”.

B20: GMBC693 (scFv)
scFv: B1 scFv with E1Q, Q6E, R113K, N207D
As to B20, the binding result is “no binding”.

B21: GMBC607 (scFv)
scFv: B1 scFv with T80M, Q84E, R113Q, L116M, G167D
In the case of B21, the binding result is given as “no binding”.

B22: GMBC676 (scFv)
scFv: B1 scFv with K13Q, D31H, G55A, Q84H, L116M, S153P
With B22, the binding result is on record as “no binding”.

B23: GMBC660 (scFv)
scFv: B1 scFv with T28I, R113Q, L116P
Take B23: the binding result is “no binding”.

B24: GMBC686 (scFv)
scFv: B1 scFv with R113Q, L116T
Take B24: the binding result was “no binding”.

B25: GMBC654 (scFv)
scFv: B1 scFv with Q6E, S7T, K13E, G55R, T90I, R113K, L116T
Turning to B25, the binding result is recorded as “no binding”.

B26: GMBC672 (scFv)
scFv: B1 scFv with E1Q, R113Q, G239E
B26: the binding result is recorded as “no binding”.

B27: GMBC620 (scFv)
scFv: B1 scFv with Q6E, L116M
As to B27, the binding result was “no binding”.

B28: GMBC613 (scFv)
scFv: KVQLVESGGGLVQPGGSLRLSCAASGFTISSHWMSWVRQAPGKGLEWVASIKQDGREKHFVDSVKGRFSISRDNAKNSLYLQMNSLRTEDTAVYYCARETYGGYYYYFMDVWGKGTLVTVSSGGGGSGGGGSGGGGSSELTQDPAVSVALGQTVRITCQGDSLRSYYASWYQQKPGQAPVLVIYGKNNRPSGIPDRFSGSSSGNTASLTITGAQAEDEADYYCNSRDSSGNHVVFGGGTKLTVLG
For B28, the binding result was “no binding”.

B29: GMBC617 (scFv)
scFv: EVQLVETGGGLVQPGGSLRLSCAASGFTVSSNYMSWVRQAPGKGLEWVSVIYSGGSTYYADSVKGRFTISRHNSKNTLYLQMNSLRAEDTAVYYCARGLWFGELLYWGQGTLVTVSSGGGGSGGGGSGGGGSQSALTQPASVSGSRGQSITISCTGTTGDVGGYDYVSWYQQHPGKAPKLLIYGNSNRPSGVPDRFSASKSGNTASLTISGLQAEDEADYFCSTYAPPGIIMFGGGTKLTVLG
On to B29, for which the binding result is recorded as “no binding”.

B30: GMBC603 (scFv)
scFv: QVQLVQSGGGVVRPGGSLRLSCAASGFTFDDYGMSWVRQAPGKGLEWVSGINWNGGSTGYADSVKGRFTISRDNAKNSLYLQMNSLRAEDTALYYCAKDLNYDFWSGSGMDVWGRGTLVTVSSGGGGSGGGGSGGGGSQSVLTQPASVSGSPGQSITISCTGTSSDVGGYNYVSWYQQHPGKAPKLMIYEGSKRPSGVSNRFSGSKSGNTASLTISGLQAEDEADYYCSSYTTRSTRVFGGGTKLTVLG
In the case of B30, the binding result was “no binding”.
